# Source: the NTF2 design screens of Basanta et al. (2020)
# Assay: protease stability score; higher = more stable; yeast display proteolysis, trypsin and chymotrypsin;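 further: relative to predicted unfolded state with 0 unfolded-like and 1 meaning tenfold more protease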
row,Sequence,protease stability score
1,DEEKEMNRHFLEHLKTAYETGDEDSIIKNIDPHYRIIVGDKDLIGMEHVKKWLHHARIHEIHPRRLEVQGNKITNDIHVVGEVNGVLRSTDQIWYLLKVDGRWLIESIEIK,1.11
2,DDDTREFEKWEKIWVEYYQTGNFDHLRRLIDPNVRSIVDGKEFHGREAMASMILEETKRADHIEMDLTRHEIIGEKMIIHSRIEIQVGDYHDHYRLELESIKVNGKWIVHRESYR,0.039
3,RELERDSTELIKMWLRHLETGDEDVISELIDPNVKVDINGQDHHGREDATEWAMRVKNMTIIVRHLEFQGEKAFVTTEVRVNGKTVHVIVRSLKVDGRWRLESLEVHSE,1.59
4,DEEEEQTHHMFKRILEVLRTGDERMLLDLADPHVRLEVGDKHMIGMDSLVHFNARIKNMRIRLRSIDFQGDYAHINTELEFDGRNHHITIVVLKVDGKWIIRSQHVK,1.46
5,SELEERAEKMTKEFERAFVTGNWEEQVKLLDPNVRIDINGVIFVGREQYERLVREIWMHVEDFRVTSLELQGEKARTHVESDVIIRVNGRDIRKKTEEEIVVSKINGVWSVERIHVR,1.24
6,DHEEEKLKESLDRLEDINRTGDWHKIHDMLDPHVRVLVNGRKHHGRETATHIYREWRITDIQFKDIRLIGDKVHIHMESRVSVNGREHSVKSELILIKVDGQWYMHAEQFL,1.05
7,DEDEKNMHIAMEIYRESVETGNEKMHRHLLDPHARIRFDGQEFHGWKDAHRFMHHRTHEWRDHHIQLRDRDYIDGRVHIRVIIYGEFNGVRTTRDIEIHVEKIDGRWYFTNLIFG,0.285
8,SDYTEVAHEIMDEWSKAILTGDEDTVEELLDPNVRVDINGQEIHGWETIFKKLRRFVDELGIDHVHVNTKRVKLIGNYIHVDGELRYHQGDFHIVRKVRLLIVKINGQWLIREINLK,2.42
9,DEDEKMLREYQRLFEEASKTGDWEHMVKLLDPDVRIRIGDKDIVGREHVLEQKKRHEDHLGIDRVNIKLVIRDERHQGEKIFLDGEFIMHFNGRTYRQHVTIILTKINGRWWIESIEIR,1.19
10,DEEEEINKKIVEDLFRALITGDEERQLKNMDPNTKIRTNVNGQDYIFHGRDLWVTLWNRFKNLRVEIESVHRQGNKIHFDTRLLFNGRIFQYHIVVISVNGQTKELKEHDE,1.24
11,DEEEELSTEVMEHVLELVLTGDEERLWKLFDPHVRLDIDGKHIIGRELVSKINKDRRRELRIHHVELKRFETQGEKVHSDIRVDGWIDGRRIDTDAHVIVVVVDGRLKSLRIIHH,1.18
12,DEDERDFRHYMELFQKAHETGDEDHFIKMMDPNARFLINGVHLHGWKEFVRLLEHIRMDVSDTRIRTVDSQGDKVRADTELIFRGKIDGREIDVTFETRIIIEKVDGRWHLREIRVH,1.3
13,SEENEHLHHLMRLVIEMFETGDEDRWYKLADPNTRMEVDGREFIGREEVIKFLRNLGVNHFWIDDVDIINGRAHIRSTLRFNGQERDLNINLHFVDGKLKREKWIIR,0.841
14,DEDERLAEEFFEKFTRDIYTGDWRALRELLDPNVRLHINGRNHHGREELLYFEIEIYRRADHVEHRLREVTLFDGRVHVDVEIILHQGDKLIVLHVILFMEKVDGRWILRRKEVR,1.5
15,DEDEKRELARRFAKNFLHGDHDNIRDLADKDVDAQVGDQTFTGTEQLMRVVKEVRDRVDHFNLTSVDVHNGQADIHARAKVNGRDYRVKIRIKIHNGRILHVQFNRR,1.31
16,SEDEEFMRHKSELYLEMLKTGDEEELERLFDPNVRLHIGDKNQHGREQFSHFFSKLHKELGVDHLSFEHIHLEVVNGRLIIIMRVHLHVGDKVHDREISIDASKVDGQWLVQSVHIHVR,0.121
